Measured values taken from paper PMC5670216, “In vitro selections of mammaglobin A and mammaglobin B aptamers for the recognition of circulating breast tumor cells”.

T1: Mammaglobin B (MGB2), recombinant (UniProt O75556 19-95)
T1 sequence: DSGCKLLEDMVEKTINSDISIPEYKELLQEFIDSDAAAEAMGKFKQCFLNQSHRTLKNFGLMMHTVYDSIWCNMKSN

B1: MAMA2 (ssDNA)
DNA: CATGCTTACCTATAGTGAACCCGGGACAGAACGTGCGCTTTGAGCTTTGAGAACTGACTCATAC
B2: MAMB1 (ssDNA)
DNA: CATGCTTACCTATAGTGAACCCAACGTCGAACTGAATCCCGTGTCCTTTGAGAACTGACTCATAC

Columns and labels:
[1] = target: Mammaglobin A (MGB1), recombinant (UniProt Q13296 19-93); test: EMSA; aptamer 600 nM, protein 0-220 nM; unit implied by nM axis; EMSA: 50 mM Tris-HCl, 10 mM reduced glutathione, pH 8.0, 1 h at 37 C, 8% native PAGE; transfected-cell flow cytometry: PBS, 5 mM MgCl2, 4 C, 30 min, formaldehyde-fixed cells; settings: tags: GST (stated for the SELEX protein)
Sequence of Mammaglobin A (MGB1), recombinant (Q13296 19-93): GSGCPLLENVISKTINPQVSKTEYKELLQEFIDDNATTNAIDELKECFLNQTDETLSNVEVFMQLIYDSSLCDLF

[2] = target: T1, Mammaglobin B (MGB2), recombinant; test: as above; settings: tags: GST (stated for the SELEX protein)

| Binder | Kd [1] | Kd [2] |
| --- | --- | --- |
| B1 | 88 ± 6 nM | – |
| B2 | – | 95 ± 7 nM |
